Literature values, collected in article PMC5244385.

Target: Fibrinogen (Homo sapiens) (UniProt P02671)
UniProt P02671, sequence (P02671 36-866, chain 1 of 3): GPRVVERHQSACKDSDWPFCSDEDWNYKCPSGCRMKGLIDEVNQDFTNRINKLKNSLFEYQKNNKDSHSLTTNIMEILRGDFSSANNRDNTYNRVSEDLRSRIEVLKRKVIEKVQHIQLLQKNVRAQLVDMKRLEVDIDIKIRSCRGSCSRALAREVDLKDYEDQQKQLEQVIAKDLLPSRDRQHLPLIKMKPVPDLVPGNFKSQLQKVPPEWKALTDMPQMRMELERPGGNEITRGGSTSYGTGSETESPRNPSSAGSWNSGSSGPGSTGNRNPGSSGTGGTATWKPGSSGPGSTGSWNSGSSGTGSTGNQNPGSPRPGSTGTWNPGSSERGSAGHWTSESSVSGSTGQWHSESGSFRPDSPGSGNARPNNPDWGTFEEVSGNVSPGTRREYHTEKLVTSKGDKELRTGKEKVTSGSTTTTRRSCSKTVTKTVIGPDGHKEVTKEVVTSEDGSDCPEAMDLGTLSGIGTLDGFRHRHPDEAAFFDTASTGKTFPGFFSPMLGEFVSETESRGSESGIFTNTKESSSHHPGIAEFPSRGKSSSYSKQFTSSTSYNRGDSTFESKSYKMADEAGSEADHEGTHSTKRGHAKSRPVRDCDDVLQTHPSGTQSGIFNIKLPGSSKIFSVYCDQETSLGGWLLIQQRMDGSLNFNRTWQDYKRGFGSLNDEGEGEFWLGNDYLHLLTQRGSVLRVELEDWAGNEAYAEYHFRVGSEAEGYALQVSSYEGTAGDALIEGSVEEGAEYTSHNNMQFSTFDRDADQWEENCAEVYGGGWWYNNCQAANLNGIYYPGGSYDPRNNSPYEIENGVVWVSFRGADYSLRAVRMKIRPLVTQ
UniProt P02671, sequence (P02675 45-491, chain 2 of 3, further chain): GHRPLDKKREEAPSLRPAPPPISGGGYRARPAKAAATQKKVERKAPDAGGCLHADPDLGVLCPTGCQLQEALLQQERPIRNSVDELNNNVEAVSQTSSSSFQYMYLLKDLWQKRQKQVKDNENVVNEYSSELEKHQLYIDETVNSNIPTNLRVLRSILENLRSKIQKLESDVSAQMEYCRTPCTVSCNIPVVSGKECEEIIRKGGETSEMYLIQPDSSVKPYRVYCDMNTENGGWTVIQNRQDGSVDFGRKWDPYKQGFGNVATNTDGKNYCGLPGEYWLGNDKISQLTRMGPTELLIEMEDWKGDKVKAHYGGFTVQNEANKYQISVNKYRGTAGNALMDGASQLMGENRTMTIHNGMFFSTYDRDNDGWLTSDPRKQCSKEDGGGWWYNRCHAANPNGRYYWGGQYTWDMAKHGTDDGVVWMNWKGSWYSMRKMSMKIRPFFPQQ
UniProt P02671, sequence (P02679 27-453, chain 3 of 3, further chain): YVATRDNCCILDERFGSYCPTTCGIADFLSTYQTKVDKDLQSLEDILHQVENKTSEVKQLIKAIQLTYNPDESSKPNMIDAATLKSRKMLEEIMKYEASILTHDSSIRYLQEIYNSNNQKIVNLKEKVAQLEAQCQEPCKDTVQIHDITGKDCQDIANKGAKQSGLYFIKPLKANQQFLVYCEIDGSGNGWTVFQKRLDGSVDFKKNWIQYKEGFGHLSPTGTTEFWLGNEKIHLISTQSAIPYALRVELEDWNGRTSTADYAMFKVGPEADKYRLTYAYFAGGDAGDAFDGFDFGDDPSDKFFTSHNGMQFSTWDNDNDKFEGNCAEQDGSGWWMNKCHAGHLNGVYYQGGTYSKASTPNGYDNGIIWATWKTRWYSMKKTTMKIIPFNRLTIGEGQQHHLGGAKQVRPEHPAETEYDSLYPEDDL

Substance: Clumping factor A (from UniProt Q53653)
- Kd: 0.51 µM
